Where two headings read alike, the source gives them in different places. Blank lines part the entries; values can stand above or below the binder they belong to.
Legend:
[1] = target: T1, LILRB2 on human monocyte-derived macrophages (HMDM) (human, UniProt Q8N423 22-597); assay: cell-based or functional assay
[2] = target: T1, LILRB2 on human monocyte-derived …; assay: cell-based or functional assay; remark: listed apart in the source

T1 sequence (Q8N423 22-597): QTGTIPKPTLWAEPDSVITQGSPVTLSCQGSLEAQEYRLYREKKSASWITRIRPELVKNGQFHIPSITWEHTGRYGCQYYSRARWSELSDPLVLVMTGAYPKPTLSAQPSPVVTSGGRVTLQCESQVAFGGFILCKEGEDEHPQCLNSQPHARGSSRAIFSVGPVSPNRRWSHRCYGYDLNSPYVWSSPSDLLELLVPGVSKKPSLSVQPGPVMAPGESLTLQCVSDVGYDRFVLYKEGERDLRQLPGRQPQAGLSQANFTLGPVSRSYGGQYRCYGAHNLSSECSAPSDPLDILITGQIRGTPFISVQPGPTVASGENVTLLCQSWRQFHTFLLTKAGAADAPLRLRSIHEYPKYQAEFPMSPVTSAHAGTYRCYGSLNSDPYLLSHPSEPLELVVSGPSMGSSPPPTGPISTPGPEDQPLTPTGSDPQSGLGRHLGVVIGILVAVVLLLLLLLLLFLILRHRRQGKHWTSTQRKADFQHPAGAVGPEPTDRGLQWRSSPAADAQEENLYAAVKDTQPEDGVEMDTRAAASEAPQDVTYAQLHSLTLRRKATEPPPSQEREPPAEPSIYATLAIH

B1: PRO4672 (37-20-B03-based PDL1-BD), anti-CD47 x PDL1 x LILRB2, (scFv)2-Fc-(scFv)2 (trispecific antibody)
chain 1: DVQMTQSPSSLSASVGDRVTITCQASQSISSWVSWYQQKPGKPPKLLIYRGGYLESGVPSRFSASGSGTDFTLTISSLQPEDFATYYCQSTDSSTYGGAFGCGTKVTVLGGGGGSGGGGSGGGGSGGGGSQQVVESGGGLVQPGGSLRLSCAVSGIDLNSYAMTWVRQAPGKCLEWIGYIGSASSTYYASWASGRFTISKDNSKNTVYLQMNSLRAEDSAVYFCARGSTYINIWGQGTLVKVSSEPKSSDKTHTCPPCPAPELLGGPSVFLFPPKPKDTLMISRTPEVTCVVVDVSHEDPEVKFNWYVDGVEVHNAKTKPREEQYNSTYRVVSVLTVLHQDWLNGKEYKCKVSNKALPAPIEKTISKAKGQPREPQVYTLPPCREEMTKNQVSLSCAVKGFYPSDIAVEWESNGQPENNYKTTPPVLDSDGSFFLVSKLTVDKSRWQQGNVFSCSVMHEALHNHYTQKSLSLSPGKGGGGSGGGGSDVQMTQSPSSLSASVGDRVTITCQASQSIGSNLAWYQQKPGKPPKLLIYKGGTLESGVPSRFSGSGSGTDFTLTISSLQPEDFATYYCQSTAGSSRSGNYGYVFGCGTKVTVLGGGGGSGGGGSGGGGSGGGGSQQLVESGGGLVQPGGSLRLSCAASGFSFTNNYYMCWVRQAPGKCLEWIACMLVGAWGNTYYASWANGRFTISKDNSKNTVYLQMNSLRAEDSAVYFCARARDYTWTLGGDPETSGFNLWGQGTLVKVSS
chain 2: not shown
- IL-1β EC50 [nM], LPS-driven cytokine secretion by HMDM [1]: 0.096 nM
- IL-6 EC50 [nM], LPS-driven cytokine secretion by HMDM [1]: 0.078 nM
- TNF-α EC50 [nM], LPS-driven cytokine secretion by HMDM [1]: 0.123 nM

B4: PRO4687 (37-20-B03-based PDL1-BD), anti-CD47 x PDL1 x LILRB2 (trispecific antibody, human IgG1, kappa)
chain: B1 chain 1
heavy: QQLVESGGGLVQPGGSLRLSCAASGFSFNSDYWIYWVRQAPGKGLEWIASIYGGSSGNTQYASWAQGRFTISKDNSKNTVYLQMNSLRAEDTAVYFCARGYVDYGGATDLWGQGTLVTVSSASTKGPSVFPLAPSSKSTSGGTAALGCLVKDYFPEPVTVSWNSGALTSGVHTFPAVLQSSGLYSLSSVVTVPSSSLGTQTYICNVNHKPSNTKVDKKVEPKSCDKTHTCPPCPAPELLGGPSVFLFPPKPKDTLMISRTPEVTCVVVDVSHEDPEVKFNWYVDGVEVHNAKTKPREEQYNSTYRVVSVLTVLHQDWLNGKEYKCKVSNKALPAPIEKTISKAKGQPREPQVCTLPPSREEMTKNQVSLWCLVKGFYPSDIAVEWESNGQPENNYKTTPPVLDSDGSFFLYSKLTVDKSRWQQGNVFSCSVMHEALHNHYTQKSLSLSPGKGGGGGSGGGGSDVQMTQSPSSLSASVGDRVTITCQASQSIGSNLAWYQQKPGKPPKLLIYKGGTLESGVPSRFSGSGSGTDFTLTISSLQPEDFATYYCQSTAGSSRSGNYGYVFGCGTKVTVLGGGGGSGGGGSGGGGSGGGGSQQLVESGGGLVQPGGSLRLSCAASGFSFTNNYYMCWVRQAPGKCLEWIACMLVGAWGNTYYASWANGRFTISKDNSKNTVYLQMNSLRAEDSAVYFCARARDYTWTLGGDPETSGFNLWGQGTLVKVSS
light: DIQMTQSPSSLSASVGDRVTITCQASQSIGTYLAWYQQKPGKPPKLLIYRGGILASGVPSRFSGSGSGTDFTLTISSLQPEDFATYYCQSNFYSDSTTIGPNAFGQGTKVEIKRTVAAPSVFIFPPSDEQLKSGTASVVCLLNNFYPREAKVQWKVDNALQSGNSQESVTEQDSKDSTYSLSSTLTLSKADYEKHKVYACEVTHQGLSSPVTKSFNRGEC
- IL-1β EC50 [nM], LPS-driven cytokine secretion by HMDM [1]: 0.205 nM
- IL-6 EC50 [nM], LPS-driven cytokine secretion by HMDM [1]: 0.097 nM
- TNF-α EC50 [nM], LPS-driven cytokine secretion by HMDM [1]: 0.175 nM

B5: PRO3744, scFv (VL-linker-VH) 68-18-E11-sc07_(VL_A67G_S68G_T141C; VH_G51C_T101S_T146K) (scFv)
scFv: DVQMTQSPSSLSASVGDRVTITCQASQSIGSNLAWYQQKPGKPPKLLIYKGGTLESGVPSRFSGSGSGTDFTLTISSLQPEDFATYYCQSTAGSSRSGNYGYVFGCGTKVTVLGGGGGSGGGGSGGGGSGGGGSQQLVESGGGLVQPGGSLRLSCAASGFSFTNNYYMCWVRQAPGKCLEWIACMLVGAWGNTYYASWANGRFTISKDNSKNTVYLQMNSLRAEDSAVYFCARARDYTWTLGGDPETSGFNLWGQGTLVKVSS
- CD86 EC50 [nM], re-polarization of M2 macrophages [2]: 0.117 nM
- CD163 EC50 [nM], re-polarization of M2 macrophages [2]: 0.107 nM
- CD206 EC50 [nM], re-polarization of M2 macrophages [2]: 0.136 nM
- IL-1β EC50 [nM], LPS-driven cytokine secretion by HMDM [2]: 0.779 nM
- IL-6 EC50 [nM], LPS-driven cytokine secretion by HMDM [2]: 0.803 nM
- TNF-α EC50 [nM], LPS-driven cytokine secretion by HMDM [2]: 1.1 nM

B6: PRO3696, scFv (VL-linker-VH) 69-01-E02-sc06_(VL_A67G_S68G; VH_T101S_L146K) (scFv)
scFv: DVQMTQSPSSLSASVGDRVTITCQASQSIGLNLAWYQQKPGKPPKLLIYAGGYLASGVSSRFSGSGSGTDFTLTISSLQPEDFATYYCQSTYDGSSFVFAFGTGTKVTVLGGGGGSGGGGSGGGGSGGGGSQEQLVESGGGLVQPGGSLRLSCAASGFSFSSSSYMCWVRQAPGKGLEWIACMVTGSSDDTDYASWAKGRFTISKDNSKNTVYLQMNSLRAEDSAVYFCARAGSAPLWGQGTLVKVSS
- CD86 EC50 [nM], re-polarization of M2 macrophages [2]: 0.243 nM
- CD163 EC50 [nM], re-polarization of M2 macrophages [2]: 0.371 nM
- CD206 EC50 [nM], re-polarization of M2 macrophages [2]: 0.587 nM
- IL-1β EC50 [nM], LPS-driven cytokine secretion by HMDM [2]: 0.446 nM
- IL-6 EC50 [nM], LPS-driven cytokine secretion by HMDM [2]: 0.804 nM
- TNF-α EC50 [nM], LPS-driven cytokine secretion by HMDM [2]: 0.891 nM

B7: PRO3697, scFv (VL-linker-VH) 69-06-G04-sc05_(VL_A67G_S68G; VH_T101S_L146K) (scFv)
scFv: AFQLTQSPSSLSASVGDRVTITCQASQSIGTYLAWYQQKPGKPPKLLIYRGGTLASGVPSRFSGSGSGTDFTLTISSLQPEDFATYYCQSYDSSNTFGTGTKVTVLGGGGGSGGGGSGGGGSGGGGSQEQLVESGGGLVQPGRSLRLSCAASGFDLSADYMCWVRQAPGKGLEWIACIYIDDDNTYYATWAKGRFTISKDNSKNTVYLQMNSLRAEDSAVYFCARGYGVYTGAITYFTLWGQGTLVKVSS
- CD86 EC50 [nM], re-polarization of M2 macrophages [2]: 0.214 nM
- CD163 EC50 [nM], re-polarization of M2 macrophages [2]: 0.173 nM
- CD206 EC50 [nM], re-polarization of M2 macrophages [2]: 0.512 nM
- IL-1β EC50 [nM], LPS-driven cytokine secretion by HMDM [2]: 0.279 nM
- IL-6 EC50 [nM], LPS-driven cytokine secretion by HMDM [2]: 0.45 nM
- TNF-α EC50 [nM], LPS-driven cytokine secretion by HMDM [2]: 2.2 nM

Continued, values first:

- IL-1β EC50 [nM], LPS-driven cytokine secretion by HMDM [1]: 0.082 nM
- IL-6 EC50 [nM], LPS-driven cytokine secretion by HMDM [1]: 0.077 nM
- TNF-α EC50 [nM], LPS-driven cytokine secretion by HMDM [1]: 0.117 nM
B2: PRO5052 (PRO4672 with 33-03-G02-based PDL1-BD), anti-CD47 x PDL1 x LILRB2, (scFv)2-Fc-(scFv)2 (trispecific antibody)
chain 1: B1 chain 1
chain 2: not shown

- IL-1β EC50 [nM], LPS-driven cytokine secretion by HMDM [1]: 0.0705 nM
- IL-6 EC50 [nM], LPS-driven cytokine secretion by HMDM [1]: 0.063 nM
- TNF-α EC50 [nM], LPS-driven cytokine secretion by HMDM [1]: 0.141 nM
B3: PRO5055 (PRO4687 with 33-03-G02-based PDL1-BD), anti-CD47 x PDL1 x LILRB2 (trispecific antibody, human IgG1, kappa)
chain: B1 chain 1
heavy: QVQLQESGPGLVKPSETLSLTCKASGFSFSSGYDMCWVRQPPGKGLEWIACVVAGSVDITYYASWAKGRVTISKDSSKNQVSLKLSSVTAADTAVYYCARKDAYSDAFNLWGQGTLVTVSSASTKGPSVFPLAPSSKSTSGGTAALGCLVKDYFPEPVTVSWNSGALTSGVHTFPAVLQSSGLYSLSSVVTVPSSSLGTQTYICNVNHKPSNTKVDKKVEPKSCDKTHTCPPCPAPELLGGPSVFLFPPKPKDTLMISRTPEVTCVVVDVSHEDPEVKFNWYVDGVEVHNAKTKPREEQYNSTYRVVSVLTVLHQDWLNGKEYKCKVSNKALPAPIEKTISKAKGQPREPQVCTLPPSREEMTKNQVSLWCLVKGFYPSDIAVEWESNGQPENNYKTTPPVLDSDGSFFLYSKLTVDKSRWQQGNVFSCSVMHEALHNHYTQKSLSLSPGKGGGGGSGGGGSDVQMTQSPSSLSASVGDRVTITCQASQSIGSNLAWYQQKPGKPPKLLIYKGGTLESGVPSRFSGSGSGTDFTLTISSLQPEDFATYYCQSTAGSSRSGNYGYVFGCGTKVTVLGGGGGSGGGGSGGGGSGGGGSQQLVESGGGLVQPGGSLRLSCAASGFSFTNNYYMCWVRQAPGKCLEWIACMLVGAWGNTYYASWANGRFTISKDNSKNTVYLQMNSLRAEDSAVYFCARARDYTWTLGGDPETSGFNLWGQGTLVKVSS
light: DIQMTQSPSSLSASVGDRVTITCQASQSINDYLAWYQQKPGKAPKLLIYKGGTLASGVPSRFSGSGSGTDFTLTISSLQPEDFATYYCQQGYIITDIDNVFGQGTKVEIKRTVAAPSVFIFPPSDEQLKSGTASVVCLLNNFYPREAKVQWKVDNALQSGNSQESVTEQDSKDSTYSLSSTLTLSKADYEKHKVYACEVTHQGLSSPVTKSFNRGEC

- IL-1β EC50 [nM], LPS-driven cytokine secretion by HMDM [1]: 0.248 nM
- IL-6 EC50 [nM], LPS-driven cytokine secretion by HMDM [1]: 0.153 nM
- TNF-α EC50 [nM], LPS-driven cytokine secretion by HMDM [1]: 0.169 nM
B8: PRO4710 (IgG4 of scFv PRO3744, 68-18-E11-sc07) (antibody, V domains shown)
VH: QQLVESGGGLVQPGGSLRLSCAASGFSFTNNYYMCWVRQAPGKGLEWIACMLVGAWGNTYYASWANGRFTISKDNSKNTVYLQMNSLRAEDTAVYFCARARDYTWTLGGDPETSGFNLWGQGTLVTVSS
VL: DVQMTQSPSSLSASVGDRVTITCQASQSIGSNLAWYQQKPGKPPKLLIYKGGTLESGVPSRFSGSGSGTDFTLTISSLQPEDFATYYCQSTAGSSRSGNYGYVFGQGTKVEIKR
